Where two headings read alike, the source gives them in different places.
Key:
[1] = test system: LPETG (Abz-LPETGK(Dnp)-CONH2); assay: In vitro sortase kinetics HPLC assay, LPETG substrate; assay type: biochemical; conditions: substrate wt (LPETG)
Method: (§1) See below for details on sortase expression and purification, and on the synthesis of Abz-LPETGK(Dnp)-CONH2 (SEQ ID NO: 19). […] Reactions were initiated with the addition of enzyme and incubated at 22.5° C. for 3 to 20 minutes before quenching with 0.5 volumes of 1 M HCl. Five to ten nmol of peptide from the quenched reactions were injected onto an analytical reverse-phase Eclipse XDB-C18 HPLC column (4.6×150 mm, 5 μm, Agilent Technologies) and chromatographed using a gradient of 10 to 65% acetonitrile with 0.1% TFA in 0.1% aqueous TFA over 13 minutes. Retention times under these conditions for the Abz-LPETGK(Dnp)-CONH2 (SEQ ID NO: 19) substrate, the released GKDnp peptide, and the Abz-LPETGGG-COOH (SEQ ID NO: 20) product were 12.8, 10.4, and 9.1 min, respectively. To calculate the percent conversion, the ratio of the integrated areas of the Abz-LPETGGG-COOH (SEQ ID NO: 20) and Abz-LPETGK(Dnp)-CONH2 (SEQ ID NO: 19) peptide Abs220 peaks was compared to a standard curve generated by mixing the product and starting peptide in known ratios. To determine […] and Km, reaction rates were fit to the Michaelis-Menten equation using OriginPro 7.0 software. All kinetics values reported represent the average of at least three measurements. Percent conversion was also calculated by using the ratio of the integrated areas of the GK(Dnp)-CONH2 and Abz-LPETGK(Dnp)-CONH2 peptide Abs355 peaks were compared directly (Example 5). To determine kcat and Km, LPETG, reaction rates were fit to the Michaelis-Menten equation using Microsoft Excel using the Solver add-in. To determine Km,GGG and KH, reaction rates were fit to the modified Michaelis-Menten, for which KH is as defined when KH<<Km,GGG.
(§2) Assays to determine eSrtA, eSrtA(2A-9) and eSrtA(4S-9) specificity were performed by preparing 10 μM stocks of Abz-LXEXGK(Dnp) (SEQ ID NO: 75) peptides in 300 mM Tris pH 7.5, 150 mM NaCl, 5 mM CaCl2, 5% v/v DMSO, and 100 mM Gly-Gly-Gly-COOH (GGG). Reactions were performed by adding eSrtA(2A-9) to a final concentration of 450 nM, eSrtA(4S-9) to a final concentration of 115 nM or eSrtA to a final concentration of 47.5 nM and a final volume of 100 μL, then incubating at 22.5° C. for 15 minutes. Reactions were quenched by the addition of 0.2 volumes of 5 M HCl, then were injected onto an analytical reverse-phase Eclipse XDB-C18 HPLC column (4.6×150 mm, 5 μm, Agilent Technologies) and chromatographed using a gradient of 10 to 65% acetonitrile with 0.1% TFA in 0.1% aqueous TFA over 13 minutes. Retention times under these conditions for the Abz-LPETGK(Dnp)-CONH2 (SEQ ID NO: 19) substrate, the released GKDnp peptide, and the Abz-LPETGGG-COOH (SEQ ID NO: 20) product were 12.8, 10.4, and 9.1 min, respectively, while the remaining Abz-LXEXGK(Dnp)-CONH2 (SEQ ID NO: 74) substrates varied in retention time between 9 and 13 minutes. To calculate the percent conversion, the ratio of the integrated areas of the GK(Dnp)-CONH2 and Abz-LPETGK(Dnp)-CONH2 (SEQ ID NO: 19) peptide Abs355 peaks were compared directly. Subsequent determination of kcat/Km and KH were performed as described for in vitro SrtA characterization.
(§3) In each case, rate constants were determined by measuring enzyme velocity at eight different substrate concentrations by HPLC assay, then fit using nonlinear regression to the Michaelis-Menten equation, yielding kcat and Km. KH was calculated by measuring enzyme velocity at 1 mM target substrate and eight different GGG concentrations by HPLC assay, then fitting the resulting curves using nonlinear regression to the modified Michaelis-Menten equation.

[2] = test system: LPESG (Abz-LPESGK(Dnp)-CONH2); assay: In vitro sortase kinetics HPLC assay, LPESG substrate; assay type: biochemical; conditions: for KH (KH,LPESG): LPESG substrate; for Specificity / preference for LPESG over LPETG: ratio of kcat/KM; for Specificity: 4S (LPESG) over wt (LPETG); for specificity (relative cat. Efficiency, fold): ratio of kcat/Km between 4S (LPESG) and wt (LPETG) substrates; for kHydrolysis (Hz): 1 mM
Method: as §1, §2, §3

[3] = Example 5 variants, read-out: Avg KM
[4] = 1 mM 4S (LPESG) substrate, GGG varied
[5] = 1 mM 4S (LPESG) substrate, read-out: Km, GGG
[6] = Example 5 variants, substrate 4S (LPESG)
[7] = Example 5 variants, substrate 4S (LPESG), read-out: Avg KM
[8] = substrate 4S (LPESG), GGG varied
[9] = substrate 4S (LPESG), read-out: Km, LxExG
[10] = GGG varied, substrate 4S (LPESG)

B1: eSrtA(4S-5): 5mut + N98D A104V A118T F122A K134R I182V (protein)
chain: QAKPQIPKDKSKVAGYIEIPDADIKEPVYPGPATREQLDRGVSFVEENESLDDQNISITGHTAIDRPNYQFTNLRAAKKGSMVYFKVGNETRKYKMTSIRNVKPTAVEVLDEQKGKDKQLTLVTCDDYNEETGVWETRKIFVATEVK
Avg kcat (Hz) ([1]; Example 5 variants): 0.00606 Hz
Km [1, 3]: 11.7 µM
kcat, 10 mM GGG (Hz) [1]: 0.006149 Hz
Km ([1]; read-out: Km, LxExG): 12.2 µM
Khydrolysis ([2]; 1 mM 4S (LPESG) substrate): 190.8 µM
kcat, 1 mM LxExG (Hz) [2, 4]: 1.342 Hz
Km [2, 5]: 26700 µM
Avg kcat (Hz) [2, 6]: 0.3877 Hz
Km [2, 7]: 76 µM
increase in kcat/Km for LPESG as compared to LPETG ([2]; FIG. 2): ~2 fold
increased affinity (KM) for the LPESG substrate as compared to the LPETG substrate ([2]; FIG. 2): ~8 fold
KH (KH,LPESG) [2]: 190 ± 16 µM
Specificity [2]: 9.672
specificity (relative cat. Efficiency, fold) [2]: 9.999 fold
kL/KL/KH ([2]; substrate 4S (LPESG)): 2.69E+07
kHydrolysis (Hz) [2, 8]: 0.009551 Hz
kcat, 10 mM GGG (Hz) ([2]; substrate 4S (LPESG)): 0.3877 Hz
Km [2, 9]: 76 µM

B2: eSrtA(4S-3.5) (protein)
chain: QAKPQIPKDKSKVAGYIEIPDADIKEPVYPGPATREQLNRGVSFTEENESLDDQNISITGHTFIDRPNYQFTNLKAAKKGSMVYFKVGNETRKYKMTSIRNVKPTAVEVLDEQKGKDKQLTLVTCDDYNEETGVWETRKIFVATEVK
Avg kcat (Hz) ([1]; Example 5 variants): 5.482 Hz
Km [1, 3]: 39300 µM
Avg kcat (Hz) [2, 6]: 5.779 Hz
Km [2, 7]: 38800 µM
lower activity than that of eSrtA on its native LPETG substrate ([2]; minimal mutant, LPETG and LPESG processed): ~100 fold
Specificity [2]: 1.454
kcat, 10 mM GGG (Hz) ([2]; substrate 4S (LPESG)): 1.118 Hz
Km [2, 9]: 7310 µM

B3: 4S.6B: 5mut + N98D A104V A118S F122A K134P I182V E189P (protein)
chain: QAKPQIPKDKSKVAGYIEIPDADIKEPVYPGPATREQLDRGVSFVEENESLDDQNISISGHTAIDRPNYQFTNLPAAKKGSMVYFKVGNETRKYKMTSIRNVKPTAVEVLDEQKGKDKQLTLVTCDDYNPETGVWETRKIFVATEVK
kcat, 10 mM GGG (Hz) [1]: 1.081 Hz
Km ([1]; read-out: Km, LxExG): 238 µM
Khydrolysis ([2]; 1 mM 4S (LPESG) substrate): 122.3 µM
kcat, 1 mM LxExG (Hz) [2, 4]: 2.132 Hz
Km [2, 5]: 15700 µM
increased affinity (KM) for the LPESG substrate as compared to the LPETG substrate ([2]; FIG. 2): ~2 fold
specificity (relative cat. Efficiency, fold) [2]: 0.9102 fold
kL/KL/KH ([2]; substrate 4S (LPESG)): 3.38E+07
kHydrolysis (Hz) [2, 8]: 0.0167 Hz
kcat, 10 mM GGG (Hz) ([2]; substrate 4S (LPESG)): 1.242 Hz
Km [2, 9]: 312 µM

B4: 4S.6C: 5mut + N98D A104V A118T F122A K134R I182V E189F (protein)
chain: QAKPQIPKDKSKVAGYIEIPDADIKEPVYPGPATREQLDRGVSFVEENESLDDQNISITGHTAIDRPNYQFTNLRAAKKGSMVYFKVGNETRKYKMTSIRNVKPTAVEVLDEQKGKDKQLTLVTCDDYNFETGVWETRKIFVATEVK
kcat, 10 mM GGG (Hz) [1]: 0.003663 Hz
Km ([1]; read-out: Km, LxExG): 16.1 µM
Khydrolysis ([2]; 1 mM 4S (LPESG) substrate): 334.1 µM
kcat, 1 mM LxExG (Hz) [2, 4]: 1.502 Hz
Km [2, 5]: 36000 µM
specificity (relative cat. Efficiency, fold) [2]: 18.52 fold
kL/KL/KH ([2]; substrate 4S (LPESG)): 1.30E+07
kHydrolysis (Hz) [2, 8]: 0.01399 Hz
kcat, 10 mM GGG (Hz) ([2]; substrate 4S (LPESG)): 0.6657 Hz
Km [2, 9]: 156 µM

B5: eSrtA(4S-3): round 3 LPESG clone: eSrtA + N98S A104T A118T F122S D124G K134R K173E K177E I182V (protein)
chain: QAKPQIPKDKSKVAGYIEIPDADIKEPVYPGPATREQLSRGVSFTEENESLDDQNISITGHTSIGRPNYQFTNLRAAKKGSMVYFKVGNETRKYKMTSIRNVKPTAVEVLDEQEGKDEQLTLVTCDDYNEETGVWETRKIFVATEVK
Avg kcat (Hz) ([1]; Example 5 variants): 0.007565 Hz
Km [1, 3]: 3390 µM
Avg kcat (Hz) [2, 6]: 2.543 Hz
Km [2, 7]: 3330 µM
preference for LPESG over LPETG [2]: 245 fold
Specificity [2]: 244.976
reduced catalytic efficiency ([2]; round 3 clone, LPESG target): > 10 fold

B6: eSrtA(4S-6): round 6 consensus variant targeting LPESG (protein)
chain: QAKPQIPKDKSKVAGYIEIPDADIKEPVYPGPATREQLDRGVSFVEENESLDDQNISISGHTAIDRPNYQFTNLGAAKKGSMVYFKVGNETRKYKMTSIRNVKPTAVEVLDEQKGKDKQLTLVTCDDYNVETGVWETRKIFVATEVK
Avg kcat (Hz) ([1]; Example 5 variants): 0.9657 Hz
Km [1, 3]: 1040 µM
Avg kcat (Hz) [2, 6]: 0.9425 Hz
Km [2, 7]: 125 µM
Avg kHydro (Hz) [2, 10]: 0.01782 Hz
Avg kcat (Hz) [2, 10]: 2.004 Hz
Km ([2]; KM for GGG, substrate 4S (LPESG), read-out: Avg KM): 13100 µM
KH (KH,LPESG) [2]: 116 ± 10 µM
Specificity [2]: 8.094
Avg KH ([2]; substrate 4S (LPESG)): 116.3542 µM

B7: eSrtA(4S-4): 5mut + A104V A118T F122S I182V (protein)
chain: QAKPQIPKDKSKVAGYIEIPDADIKEPVYPGPATREQLNRGVSFVEENESLDDQNISITGHTSIDRPNYQFTNLKAAKKGSMVYFKVGNETRKYKMTSIRNVKPTAVEVLDEQKGKDKQLTLVTCDDYNEETGVWETRKIFVATEVK
Avg kcat (Hz) ([1]; Example 5 variants): 0.1073 Hz
Km [1, 3]: 491 µM
kcat, 10 mM GGG (Hz) [1]: 0.09571 Hz
Km ([1]; read-out: Km, LxExG): 339 µM
Avg kcat (Hz) [2, 6]: 0.7574 Hz
Km [2, 7]: 1560 µM
preference for LPESG over LPETG [2]: 2 fold
Specificity [2]: 2.224
specificity (relative cat. Efficiency, fold) [2]: 1.823 fold
kcat, 10 mM GGG (Hz) ([2]; substrate 4S (LPESG)): 0.7269 Hz
Km [2, 9]: 1410 µM

From patent US10202593B2, “Evolved sortases and uses thereof” (President and Fellows of Harvard College, priority 2013, dated 2019)
